Laboratory results: patent US20040018971A1

What was measured:
HLA-A*2401 (human) [1] = experiment: inhibition of 125I probe peptide binding to purified HLA; IC50 standard/IC50 test
[2] = target: HLA-A*2401 (purified HLA class I molecule) (human); experiment: competition with 125I-labelled probe peptide for purified HLA, gel filtration; conditions: scale: ratio
HLA-A*2401 (human) [3] = experiment: competition with 125I-labelled standard peptide for purified HLA, gel filtration
[4] = target: HLA-DR3 (DRB1*0301), purified HLA class II molecule (human); experiment: competition with 125I-labelled probe peptide, purified HLA-DR
[5] = target: HLA-A*2401 (purified HLA class I molecule) (human); experiment: competition with 125I-labelled standard peptide for purified HLA, gel filtration; conditions: scale: ratio

Substance	relative binding ratio (HLA-A*2401 (human) [1])	relative binding ratio (ratio (IC50 standard / IC50 test)) [4]	also measured
HER2/neu 705-715 (from UniProt P04626 705-715) (peptide)	-0.0003	–	–
HER2/neu 780-790 (peptide)	0.032	–	–
HER2/neu peptide, position 952, 10 amino acids	–	–	relative binding ratio [2]: 0.0019
HER2/neu 705-714 (from UniProt P04626 705-714) (peptide)	0.0002	–	–
HER2/neu peptide, position 780, 11 amino acids	–	–	relative binding ratio (IC50 of standard peptide / IC50 of test peptide) (ratio to standard peptide) (HLA-A*2401 (human) [3]): 0.032
HER2/neu DR supermotif exemplary 15-mer … (position 783) (peptide)	–	0.0062	–
HER2/neu DR supermotif exemplary 15-mer … (position 912) (peptide)	–	0.001	–
HER2/neu DR supermotif exemplary 15-mer … (position 8) (peptide)	–	0.001	–
HER2/neu 172-181 (from UniProt P04626 172-181) (peptide)	0.0022	–	–
HER2/neu peptide, position 172, 10 amino acids	–	–	relative binding ratio [5]: 0.0022
HER2/neu DR supermotif exemplary 15-mer … (position 666) (peptide)	–	0.0021	–
